Assay results from US6303357A, “L-α-glycerophosphate oxidase gene, recombinant DNA, and method for producing modified L-α-glycerophosphate oxidase gene” (priority 2000, dated 2001).

Columns and labels:
Type in all cases: biochemical, Enterococcus faecium
[1] = test system: O=P(O)(O)OCC(O)CO; experiment: Km value of modified GPO Phe 130/Ala 225; conditions: other: Phe 130, Ala 225, 37° C., pH 7.0 activity assay
Description: (§1) According to the invention, method for the measurement GPO activity is as follows unless otherwise noted.
(§2) 300 mM Sodium (±)-1-glycerophosphate n-hydrate
(§3) A 1.0 ml portion of a reaction solution having the above composition is put into a test tube and subjected to 5 minutes of preliminary incubation at 37° C., and then 20 μl of an enzyme solution is added thereto to carry out 5 minutes of the reaction at 37° C. After the reaction, 2.0 ml of 0.5% SDS solution is added to terminate the reaction, and calorimetric determination is carried out at a wavelength of 600 nm. An activity capable of forming 1 μmole of hydrogen peroxide within 1 minute was defined as 1 unit (U). [formula]
(§4) The resulting cells were collected by centrifugation, washed with 10 mM Tris-HCl buffer (pH 8.0) containing 0.1 M sodium chloride and 1 mM EDTA and then suspended in a solution prepared by adding 1 mg/ml of lysozyme to 50 mM potassium phosphate buffer (pH 7.0) containing 10 mM EDTA and 0.1% Triton X-100, subsequently carrying out 2 hours of cell lysis at 4° C. After the cell lysis, this was subjected to ultrasonic disintegration and then centrifuged, and the supernatant was used as the enzyme solution to measure its enzyme activity, heat resistance and Km value.
(§5) In addition, improvement of two or more properties was found by a combination of these mutations. […]

[2] = test system: O=P(O)(O)OCC(O)CO; experiment: Km value of GPO (wild type control, E. coli DH5/pGPO97); conditions: other: wild type GPO, 37° C., pH 7.0 activity assay
Description: as §1, §2, §3, §4, §5

[3] = test system: O=P(O)(O)OCC(O)CO; experiment: Km value of modified GPO Ala 225/Gly 420; conditions: other: Ala 225, Gly 420, 37° C., pH 7.0 activity assay
Description: as §1, §2, §3, §4, §5

Q: With “Enterococcus faecium No. 7044 L-α-glycerophosphate oxidase (GPO) variant Phe 130/Ala 225 (Enterococcus faecium DO; L137F/L267F/S362A)” as the substance, how does the Km [1] read?
A: 4.6 mM

Q: How did the Km [2] turn out when “Enterococcus faecium No. 7044 L-α-glycerophosphate oxidase (GPO), wild type, Sequence No. 1 (Enterococcus faecium DO)” was run?
A: 23.2 mM

Q: “Enterococcus faecium No. 7044 L-α-glycerophosphate oxidase (GPO) variant Ala 225/Gly 420 (Enterococcus faecium DO; D212G/D427G/S17A)” was tested. Which Km [3] did it give?
A: 28.8 mM
